Source: article PMC2770544, “Conformational changes and loose packing promote E. coli Tryptophanase cold lability” (BMC Structural Biology, 2009)
Residue numbers refer to the chain shown, from its start. Names may count otherwise.

B1: wild-type E. coli tryptophanase, holo form (enzyme)
chain: not shown
modifications: pyridoxal 5'-phosphate (PLP) covalently bound to Lys270
notes: tryptophanase (Trpase, EC 4.1.99.1), E. coli, wild type, ~52 kD per monomer; also called wt holo; wt Trpase; source: E. coli SVS 370 cells containing the tnaA gene on plasmids, purified (DEAE anion exchange, Sephacryl S-300-HR)
B2: E. coli tryptophanase W330F mutant, holo form (enzyme)
chain: not shown
modifications: pyridoxal 5'-phosphate (PLP) covalently bound to Lys270
notes: tryptophanase (Trpase), E. coli, W330F mutant; also called W330F holo; source: E. coli SVS 370 cells containing the tnaA gene with the site-directed mutation, purified as the wild type
B3: E. coli tryptophanase Y74F mutant, holo form (enzyme)
chain: MENFKHLPEPFRIRVIEPVKRTTRAYREEAIIKSGMNPFLLDSEDVFIDLLTDSGTGAVTQSMQAAMMRGDEAFSGSRSYYALAESVKNIFGYQYTIPTHQGRGAEQIYIPVLIKKREQEKGLDRSKMVAFSNYFFDTTQGHSQINGCTVRNVYIKEAFDTGVRYDFKGNFDLEGLERGIEEVGPNNVPYIVATITSNSAGGQPVSLANLKAMYSIAKKYDIPVVMDSARFAENAYFIKQREAEYKDWTIEQITRETYKYADMLAMSAKKDAMVPMGGLLCMKDDSFFDVYTECRTLCVVQEGFPTYGGLEGGAMERLAVGLYDGMNLDWLAYRIAQVQYLVDGLEEIGVVCQQAGGHAAFVDAGKLLPHIPADQFPAQALACELYKVAGIRAVEIGSFLLGRDPKTGKQLPCPAELLRLTIPRATYTQTHMDFIIEAFKHVKENAANIKGLTFTYEPKVLRHFTAKLKEV
modifications: pyridoxal 5'-phosphate (PLP) covalently bound to Lys270
notes: tryptophanase (Trpase), E. coli, Y74F mutant; the sample called 'Y74F holo' was run with 0.1 mM PLP; also called Y74F holo; source: E. coli BL21(DE3), pET17b plasmid, purified
B4: E. coli tryptophanase C298S mutant, holo form (enzyme)
chain: B3 chain with F74Y, C298S
modifications: pyridoxal 5'-phosphate (PLP) covalently bound to Lys270
notes: tryptophanase (Trpase), E. coli, C298S mutant; also called C298S holo; source: E. coli SVS 370 cells containing the tnaA gene with the site-directed mutation, purified as the wild type
B5: E. coli tryptophanase W330F mutant, apo form (enzyme)
chain: not shown
notes: tryptophanase (Trpase), E. coli, W330F mutant, without PLP; also called W330F apo; source: E. coli SVS 370 cells containing the tnaA gene with the site-directed mutation, purified; apo enzyme by overnight dialysis of the holo enzyme
B6: wild-type E. coli tryptophanase, apo form (enzyme)
chain: not shown
notes: tryptophanase (Trpase, EC 4.1.99.1), E. coli, wild type, without PLP; also called wt apo; apo wt Trpase; source: E. coli SVS 370 cells containing the tnaA gene on plasmids, purified; apo enzyme by overnight dialysis of the holo enzyme against 0.1 M sodium phosphate-ethylenediamine buffer, pH 8.0, 4°C
B7: E. coli tryptophanase Y74F mutant, apo form (enzyme)
chain: B3 chain
notes: tryptophanase (Trpase), E. coli, Y74F mutant, without PLP; one monomer in the asymmetric unit of the crystal, the tetramer arises by symmetry; also called Y74F apo; apo Y74F; source: E. coli BL21(DE3), pET17b plasmid, purified; apo enzyme by overnight dialysis of the holo enzyme
B8: E. coli tryptophanase C298S mutant, apo form (enzyme)
chain: B3 chain with F74Y, C298S
notes: tryptophanase (Trpase), E. coli, C298S mutant, without PLP; one monomer in the asymmetric unit of the crystal, the tetramer arises by symmetry; also called C298S apo; apo C298S; source: E. coli SVS 370 cells containing the tnaA gene with the site-directed mutation, purified; apo enzyme by overnight dialysis of the holo enzyme

Target: the molecule itself
Assay: SEC; HPLC gel filtration (BIOSEP-SEC S-3000) at 25°C; holo enzymes, 1 mg/ml, Tricine-KCl buffer pH 7.5 with PLP (0.1 mM by the table's footnote), 2 mM EDTA, 5 mM 2-mercaptoethanol; tetramer to dimers

Protein | degree of dissociation to dimers (%)
B1 | < 3
B2 | < 5
B3 | 17
B4 | < 5

Target: the molecule itself
Assay: SEC; HPLC gel filtration (BIOSEP-SEC S-3000) at 2°C after cooling (20 h; P. vulgaris 24 h); apo enzymes, same Tricine-KCl buffer without PLP; tetramer to dimers (P. vulgaris: also to monomers)

Protein | degree of dissociation to dimers (%)
B5 | 90
B6 | 87
B7 | 83
B8 | 88

Target: the molecule itself
Assay: SEC; HPLC gel filtration (BIOSEP-SEC S-3000) at 25°C; holo enzymes, 1 mg/ml, Tricine-KCl buffer pH 7.5 with PLP (0.1 mM by the table's footnote), 2 mM EDTA, 5 mM 2-mercaptoethanol; tetramer to dimers
Remark: another data set of the same source

Protein | stoichiometry N
B1 | 4
B2 | 4
B4 | 4

Target: the molecule itself
Assay: SEC; HPLC gel filtration (BIOSEP-SEC S-3000) at 2°C after 20 h at 2°C; holo enzymes, 1 mg/ml, Tricine-KCl buffer pH 7.5 with PLP (0.1 mM by the table's footnote), 2 mM EDTA, 5 mM 2-mercaptoethanol; tetramer to dimers

Protein | degree of dissociation to dimers (%)
B1 | 20
B2 | 61
B3 | 66
B4 | 64

Target: the molecule itself
Assay: SEC; HPLC gel filtration (BIOSEP-SEC S-3000) at 25°C; apo enzymes, same Tricine-KCl buffer without PLP; tetramer to dimers (P. vulgaris: also to monomers)

Protein | degree of dissociation to dimers (%)
B5 | 69
B6 | 70
B7 | 80
B8 | > 80

Target: the molecule itself
Assay: SEC; time profile of cold dissociation at 2°C followed by HPLC gel filtration; Tricine-KCl buffer pH 7.5, protein 1.0 mg/ml; tetramer to dimers

Protein | initial rate constant of cold dissociation (tetramer to dimers) [min⁻¹]
B1 | 0.00042
B2 | 0.00084
B4 | 0.0032
